Values quoted from earlier work, collected in publication PMC3245798.

Target: SLAM (Homo sapiens) (UniProt Q13291)
Conditions: cited from earlier work

UniProt Q13291, sequence (Q13291 21-335): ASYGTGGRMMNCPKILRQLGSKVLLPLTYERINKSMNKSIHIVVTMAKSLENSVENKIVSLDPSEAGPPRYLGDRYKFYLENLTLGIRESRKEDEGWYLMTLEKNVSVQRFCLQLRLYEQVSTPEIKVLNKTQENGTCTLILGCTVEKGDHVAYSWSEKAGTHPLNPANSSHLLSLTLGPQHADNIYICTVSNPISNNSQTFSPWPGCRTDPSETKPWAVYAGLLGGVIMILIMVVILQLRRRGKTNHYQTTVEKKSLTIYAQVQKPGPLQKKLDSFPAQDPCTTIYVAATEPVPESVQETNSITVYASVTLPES

measles virus hemagglutinin (H) (from UniProt P08362)
Kd: 80 nM
